Key:
[1] = target: type I gelatin (heat-denatured acid-soluble type I atelocollagen from bovine hides) (bovine) (UniProt P02453); assay: ELISA
[2] = target: soluble type I collagen (acid-soluble type I atelocollagen from bovine hides) (bovine) (UniProt P02453); assay: ELISA
[3] = target: V-domain of Scl2.3 (Streptococcus pyogenes); assay: SDS-PAGE

type I gelatin (heat-denatured acid-soluble type I atelocollagen from bovine hides) (bovine), sequence (P02453 162-1217, chain 1 of 2): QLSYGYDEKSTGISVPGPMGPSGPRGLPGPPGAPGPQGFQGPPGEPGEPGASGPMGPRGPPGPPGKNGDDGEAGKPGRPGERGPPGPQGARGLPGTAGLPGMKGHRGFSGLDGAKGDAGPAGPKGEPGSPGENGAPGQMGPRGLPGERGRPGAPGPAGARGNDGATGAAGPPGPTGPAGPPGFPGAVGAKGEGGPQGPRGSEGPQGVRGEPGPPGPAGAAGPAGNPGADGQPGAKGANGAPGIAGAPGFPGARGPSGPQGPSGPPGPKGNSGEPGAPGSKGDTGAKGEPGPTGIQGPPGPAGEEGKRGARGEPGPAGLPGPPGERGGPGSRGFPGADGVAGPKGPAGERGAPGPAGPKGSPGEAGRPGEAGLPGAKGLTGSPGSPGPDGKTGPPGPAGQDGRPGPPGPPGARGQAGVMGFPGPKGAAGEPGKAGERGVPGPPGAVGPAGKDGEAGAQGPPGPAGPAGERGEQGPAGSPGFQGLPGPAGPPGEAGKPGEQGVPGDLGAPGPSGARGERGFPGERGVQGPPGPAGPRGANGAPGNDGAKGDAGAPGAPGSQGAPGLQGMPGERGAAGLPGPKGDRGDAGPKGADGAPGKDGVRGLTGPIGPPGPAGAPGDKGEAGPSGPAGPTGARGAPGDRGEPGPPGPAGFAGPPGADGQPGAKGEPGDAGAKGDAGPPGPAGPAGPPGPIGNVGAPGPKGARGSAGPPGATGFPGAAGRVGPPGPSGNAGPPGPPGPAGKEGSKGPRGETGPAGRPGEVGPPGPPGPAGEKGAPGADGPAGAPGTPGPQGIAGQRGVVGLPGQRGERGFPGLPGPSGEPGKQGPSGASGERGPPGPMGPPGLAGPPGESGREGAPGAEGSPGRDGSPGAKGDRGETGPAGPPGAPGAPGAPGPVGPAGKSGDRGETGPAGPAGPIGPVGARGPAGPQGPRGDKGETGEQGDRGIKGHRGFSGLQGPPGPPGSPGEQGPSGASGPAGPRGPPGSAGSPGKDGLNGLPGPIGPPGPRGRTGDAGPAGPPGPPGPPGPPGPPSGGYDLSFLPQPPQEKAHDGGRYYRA
type I gelatin (heat-denatured acid-soluble type I atelocollagen from bovine hides) (bovine), sequence (P02465 80-1117, chain 2 of 2, further chain): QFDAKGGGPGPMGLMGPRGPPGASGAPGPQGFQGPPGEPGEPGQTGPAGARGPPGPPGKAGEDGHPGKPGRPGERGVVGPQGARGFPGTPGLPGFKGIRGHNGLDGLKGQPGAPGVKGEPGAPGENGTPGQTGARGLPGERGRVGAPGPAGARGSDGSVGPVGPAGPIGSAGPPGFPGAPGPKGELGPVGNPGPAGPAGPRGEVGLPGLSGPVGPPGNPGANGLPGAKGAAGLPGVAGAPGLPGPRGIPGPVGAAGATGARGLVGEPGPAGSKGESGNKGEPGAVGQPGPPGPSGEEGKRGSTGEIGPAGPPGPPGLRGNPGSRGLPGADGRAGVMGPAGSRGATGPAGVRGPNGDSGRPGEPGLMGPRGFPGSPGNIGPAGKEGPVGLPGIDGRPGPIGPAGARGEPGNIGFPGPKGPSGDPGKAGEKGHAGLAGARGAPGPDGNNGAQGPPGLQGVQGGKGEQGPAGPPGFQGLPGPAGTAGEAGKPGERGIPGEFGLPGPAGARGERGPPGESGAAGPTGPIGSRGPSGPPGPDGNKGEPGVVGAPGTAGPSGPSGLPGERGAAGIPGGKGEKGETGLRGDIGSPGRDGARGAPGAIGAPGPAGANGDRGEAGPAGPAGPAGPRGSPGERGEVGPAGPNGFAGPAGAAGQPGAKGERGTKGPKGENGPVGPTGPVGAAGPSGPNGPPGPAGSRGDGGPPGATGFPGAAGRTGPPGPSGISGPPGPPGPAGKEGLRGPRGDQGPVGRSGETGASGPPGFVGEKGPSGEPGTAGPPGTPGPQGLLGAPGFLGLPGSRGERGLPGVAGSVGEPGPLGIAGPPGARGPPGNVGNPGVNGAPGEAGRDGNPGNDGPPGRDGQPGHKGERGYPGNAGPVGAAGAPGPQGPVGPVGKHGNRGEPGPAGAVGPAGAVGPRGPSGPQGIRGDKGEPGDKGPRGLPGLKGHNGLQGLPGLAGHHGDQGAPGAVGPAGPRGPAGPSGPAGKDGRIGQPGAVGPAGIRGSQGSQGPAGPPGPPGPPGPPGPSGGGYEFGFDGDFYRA
soluble type I collagen (acid-soluble type I atelocollagen from bovine hides) (bovine), sequence (P02453 162-1217, chain 1 of 2): as the sequence (P02453 162-1217, chain 1 of 2) above
soluble type I collagen (acid-soluble type I atelocollagen from bovine hides) (bovine), sequence (P02465 80-1117, chain 2 of 2, further chain): as the sequence (P02465 80-1117, chain 2 of 2, further chain) above

Substance	Kd [1]	Kd [2]	fold increase in affinity against ColQ1-CU G472V (WT) [2]	other results
ColG-PD E524A (D398-G790) (domain or fragment)	243000 nM	497000 nM		
ColQ1-CU G472V Y173A (domain or fragment)				fold drop in binding affinity against ColQ1-CU G472V (WT) [1]: 15 fold
ColQ1-CU G472V (domain or fragment)	1600 nM	1600 nM		
V-domain of Scl2.3 (domain or fragment)				stoichiometry N [3]: 3
ColG-CU E524A (Y119-G790) (domain or fragment)	80 nM	370 nM		
ColQ1-CU G472V N226A (domain or fragment)				fold drop in binding affinity against ColQ1-CU G472V (WT) [1]: 90 fold; fold reduction in binding affinity against ColQ1-CU G472V (WT) [2]: > 90 fold
ColQ1-CU G472V F176A (domain or fragment)			20 fold	
ColQ1-CU G472V Y270A (domain or fragment)			8 fold	
ColQ1-CU G472V R169A (domain or fragment)			9 fold	

Reference: doi:10.1101/2023.07.18.549520
